Experimental data from publication PMC10672205, “Towards a High-Affinity Peptidomimetic Targeting Proliferating Cell Nuclear Antigen from Aspergillus fumigatus” (Journal of Fungi, 2023).
Read-outs that look alike come from different tables or passages of the source. Ends that are not written are not given here. Peptide text beside a SMILES is read from it.

Tests used:
[1] = target: afumPCNA (A. fumigatus PCNA) (Aspergillus fumigatus, UniProt A0A229Y5V5); assay: biochemical; type: binding
Method: Surface plasmon resonance (SPR) experiments were performed as previously described. The running buffer used for ligand attachment and analyte-binding experiments was a 10 mM HEPES buffer with 150 mM NaCl, 3 mM EDTA, and 0.05% Tween-20, adjusted to pH 7.4 with 2 M NaOH. A GE CM5 (series S) sensor chip was primed with the running buffer and preconditioned with successive injections (2 × 50 s, 30 μL/min) of 50 mM NaOH, 10 mM HCl, 0.1% SDS, 0.85% H3PO4, and 50 mM glycine pH 9.5, respectively. The surface was then activated with an injection of 0.2 M 1-ethyl-3-(3-dimethylaminopropyl)carbodiimide (EDC) and 50 mM N-hydroxysuccinimide (NHS) (600 s, 10 μL/min). A. fumigatus PCNA (5 μL, 12 mg/mL) was diluted into the running buffer (245 μL). Upon the preactivation of the surface, the protein was further diluted to a final concentration of 25 μg/mL in 10 mM NaAc (~pH 4.6). This solution was immediately injected over the target flow cell (10 μL/min) to immobilize ~1500 RU. Both the target and reference flow cells were then blocked with 1.0 M ethanolamine at pH 8.5 (600 s, 10 μL/min). The chip was left to stabilize before sample injections commenced.
Peptide stock solutions for use in SPR experiments were prepared in MilliQ water. The peptide stock concentration was determined via 205 nm absorbance with NanoDrop2000. The ε205 for each peptide was calculated using an online calculator (http://nickanthis.com/tools/a205.html, accessed on 22 August 2022 [24]); however, additional glycine residue was added to each peptide sequence to account for the terminal amide of the peptides synthesized in-house. The peptide stock solution’s concentration was then calculated using Beer’s Law.
A 2-fold serial dilution was performed for each peptide, with 8 samples injected sequentially from the lowest to highest concentrations; they were preceded by a buffer-only blank injection. After each injection, the surface was regenerated with 2 M NaCl (2 × 30 s, 25 μL/min). All data were analyzed using the GE Biosystems Biacore S200 Evaluation Software, Version 1.0 (Build: 20).

[2] = target: Aspergillus fumigatus proliferating cell nuclear antigen (Aspergillus fumigatus); assay: SPR
[3] = target: T1, human proliferating cell nuclear antigen (human, UniProt P12004 1-259); assay: SPR; peptide against human PCNA, tested in triplicate; immobilisation of human PCNA not described here (SPR as previously described, ref. 18); settings: both partners purified
T1 construct: also called hPCNA; human PCNA
T1 sequence (P12004 1-259): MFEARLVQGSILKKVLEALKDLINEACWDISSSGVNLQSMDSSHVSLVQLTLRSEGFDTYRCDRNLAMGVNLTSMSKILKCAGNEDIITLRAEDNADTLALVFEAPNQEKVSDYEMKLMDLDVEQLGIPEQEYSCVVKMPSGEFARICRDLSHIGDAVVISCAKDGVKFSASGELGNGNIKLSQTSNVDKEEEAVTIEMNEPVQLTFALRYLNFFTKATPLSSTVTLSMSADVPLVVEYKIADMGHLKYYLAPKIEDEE

[4] = afumPCNA Binding Affinity KD (nM) ± SD (nM)
[5] = read-out: afumPCNA Binding Affinity KD (nM) ± SD, SPR steady-state affinity, afumPCNA immobilised on CM5 chip (~1500 RU), 10 mM HEPES, 150 mM NaCl, 3 mM EDTA, 0.05% Tween-20, pH 7.4, 8 x 2-fold dilutions, contact 40 s, dissociation 30 s, KD ± SD
[6] = afumPCNA Binding Affinity KD (nM) ± KD SD (nM)

Molecule | Kd [2] [nM] | also measured
CC[C@H](C)[C@H](NC(=O)[C@H](CCCNC(=N)N)NC(=O)[C@@H](NC(=O)[C@H](CCC(N)=O)NC(=O)[C@H](CCCNC(=N)N)NC(=O)[C@H](CCCNC(=N)N)NC(=O)[C@@H](N)CCCCN)[C@@H](C)O)C(=O)N[C@H](C(=O)N[C@@H](CCC(=O)O)C(=O)N[C@@H](Cc1ccc(O)cc1)C(=O)N[C@@H](Cc1ccccc1)C(=O)N[C@@H](Cc1c[nH]cn1)C(=O)N[C@@H](CO)C(=O)N[C@@H](CCCCN)C(=O)N[C@@H](CCCNC(=N)N)C(N)=O)[C@@H](C)O [p21μ-RD2] (H-KRRQTRITEYFHSKR-NH2) |  | Kd ([1]; Affinity KD (nM) (Table S1)): 20.3 nM
CSCC[C@H](NC(=O)[C@H](CO)NC(=O)[C@@H](NC(=O)[C@H](CCC(N)=O)NC(=O)[C@H](CCCNC(=N)N)NC(=O)[C@H](CCCNC(=N)N)NC(=O)[C@@H](N)CCCCN)[C@@H](C)O)C(=O)N[C@H](C(=O)N[C@@H](CC(=O)O)C(=O)N[C@@H](Cc1ccc(O)cc1)C(=O)N[C@@H](Cc1ccccc1)C(=O)N[C@@H](Cc1c[nH]cn1)C(=O)N[C@@H](CO)C(=O)N[C@@H](CCCCN)C(=O)N[C@@H](CCCNC(=N)N)C(N)=O)[C@@H](C)O [p21μ-FY150151YF] (H-KRRQTSMTDYFHSKR-NH2) |  | Kd [1, 4]: 96.4 ± 19.6 nM
p21µ-FY150151YF peptide | 96.4 | 
p21µ peptide (141-155) | 265 | 
CSCC[C@H](NC(=O)[C@H](CCCNC(=N)N)NC(=O)[C@H](CCCNC(=N)N)NC(=O)[C@@H](N)CCCCN)C(=O)N[C@H](C(=O)N[C@@H](CO)C(=O)N[C@@H](CCSC)C(=O)N[C@H](C(=O)N[C@@H](CC(=O)O)C(=O)N[C@@H](Cc1ccccc1)C(=O)N[C@@H](Cc1ccc(O)cc1)C(=O)N[C@@H](Cc1c[nH]cn1)C(=O)N[C@@H](CO)C(=O)N[C@@H](CCCCN)C(=O)N[C@@H](CCCNC(=N)N)C(N)=O)[C@@H](C)O)[C@@H](C)O [p21μ-Q144M] (H-KRRMTSMTDFYHSKR-NH2) |  | Kd [1, 5]: 41400 nM
CSCC[C@H](NC(=O)[C@H](CO)NC(=O)[C@@H](NC(=O)[C@H](CCC(N)=O)NC(=O)[C@H](CCCNC(=N)N)NC(=O)[C@H](CCCNC(=N)N)NC(=O)[C@@H](N)CCCCN)[C@@H](C)O)C(=O)N[C@H](C(=O)N[C@@H](CC(=O)O)C(=O)N[C@@H](Cc1ccccc1)C(=O)N[C@@H](Cc1ccc(O)cc1)C(=O)N[C@@H](Cc1c[nH]cn1)C(=O)N[C@@H](CO)C(=O)N[C@@H](CCCCN)C(=O)N[C@@H](CCCNC(=N)N)C(N)=O)[C@@H](C)O [p21μ] |  | Kd [1, 4]: 265 ± 5.9 nM
CC[C@H](C)[C@H](NC(=O)[C@H](CC(=O)O)NC(=O)[C@@H](NC(=O)[C@@H]1CCCN1C(=O)[C@H](CCSC)NC(=O)[C@H](CCCNC(=N)N)NC(=O)[C@H](CCCNC(=N)N)NC(=O)[C@@H](N)CCCCN)[C@@H](C)O)C(=O)N[C@@H](CCCNC(=N)N)C(=O)N[C@@H](CC(N)=O)C(=O)N[C@@H](Cc1ccccc1)C(=O)N[C@@H](Cc1ccccc1)C(=O)N[C@@H](Cc1c[nH]cn1)C(=O)N[C@@H](CO)C(=O)N[C@@H](CCCCN)C(=O)N[C@@H](CCCNC(=N)N)C(N)=O [p21μafumRFC] (H-KRRMPTDIRNFFHSKR-NH2) |  | Kd [1, 6]: 94.8 ± 8.76 nM
CC[C@H](C)[C@H](NC(=O)[C@H](CO)NC(=O)[C@H](CCCNC(=N)N)NC(=O)[C@@H](NC(=O)[C@H](CCCNC(=N)N)NC(=O)[C@H](CCC(N)=O)NC(=O)[C@H](CCCNC(=N)N)NC(=O)[C@H](CCCNC(=N)N)NC(=O)[C@@H](N)CCCCN)C(C)C)C(=O)N[C@@H](C)C(=O)N[C@@H](CO)C(=O)N[C@@H](Cc1ccccc1)C(=O)N[C@@H](Cc1ccccc1)C(=O)N[C@@H](Cc1c[nH]cn1)C(=O)N[C@@H](CO)C(=O)N[C@@H](CCCCN)C(=O)N[C@@H](CCCNC(=N)N)C(N)=O [p21μafumDNALIG] (H-KRRQRVRSIASFFHSKR-NH2) |  | Kd [1, 6]: 458 ± 118 nM
CSCC[C@H](NC(=O)[C@H](CO)NC(=O)[C@H](CCCCN)NC(=O)[C@H](CCC(N)=O)NC(=O)[C@H](CCCNC(=N)N)NC(=O)[C@H](CCCNC(=N)N)NC(=O)[C@@H](N)CCCCN)C(=O)N[C@H](C(=O)N[C@@H](CC(=O)O)C(=O)N[C@@H](Cc1ccccc1)C(=O)N[C@@H](Cc1ccc(O)cc1)C(=O)N[C@@H](Cc1c[nH]cn1)C(=O)N[C@@H](CO)C(=O)N[C@@H](CCCCN)C(=O)N[C@@H](CCCNC(=N)N)C(N)=O)[C@@H](C)O [p21μ-T145K] (H-KRRQKSMTDFYHSKR-NH2) |  | Kd [1, 5]: 10000 nM
CSCC[C@H](NC(=O)[C@H](CO)NC(=O)[C@H](CC(=O)O)NC(=O)[C@H](CCC(N)=O)NC(=O)[C@H](CCCNC(=N)N)NC(=O)[C@H](CCCNC(=N)N)NC(=O)[C@@H](N)CCCCN)C(=O)N[C@H](C(=O)N[C@@H](CC(=O)O)C(=O)N[C@@H](Cc1ccccc1)C(=O)N[C@@H](Cc1ccc(O)cc1)C(=O)N[C@@H](Cc1c[nH]cn1)C(=O)N[C@@H](CO)C(=O)N[C@@H](CCCCN)C(=O)N[C@@H](CCCNC(=N)N)C(N)=O)[C@@H](C)O [p21μ-T145D] (H-KRRQDSMTDFYHSKR-NH2) |  | Kd ([1]; Affinity KD (nM) (Table S1), SPR steady-state affinity against AfumPCNA, 8x 1 in 2 dilutions from Top Conc, On/Off 40/30 s): 4110 nM
CC(C)C[C@H](NC(=O)[C@H](CCCNC(=N)N)NC(=O)[C@H](CO)NC(=O)[C@H](CCC(N)=O)NC(=O)[C@H](CCCNC(=N)N)NC(=O)[C@H](CCCNC(=N)N)NC(=O)[C@@H](N)CCCCN)C(=O)N[C@@H](CCC(=O)O)C(=O)NCC(=O)N[C@@H](Cc1ccccc1)C(=O)N[C@@H](Cc1ccccc1)C(=O)N[C@@H](Cc1c[nH]cn1)C(=O)N[C@@H](CO)C(=O)N[C@@H](CCCCN)C(=O)N[C@@H](CCCNC(=N)N)C(N)=O [p21μafumFEN1] (H-KRRQSRLEGFFHSKR-NH2) |  | Kd [1, 6]: 713 ± 56.9 nM
KRRMTSMTDFYHSKR-NH2 [p21µ-Q144M peptide] | 41400 | 
KRRQTRITEYFHSKR-NH2 [p21µ-RD2 peptide] | 20.3 | 
KRRQTSLTDFYHSKR-NH2 [p21µ-M147L peptide] | 382 | 
KRRQKSMTDFYHSKR-NH2 [p21µ-T145K peptide] | 10000 | 
KRRQTSMTEFYHSKR-NH2 [p21µ-D149E peptide] | 401 | 
KRRMPTDIRNFFHSKR-NH2 (also called p21μafumRFC; p21µRFC; source: synthetic peptide, Genscript Biotech (>95%, HPLC)) [p21µ-afumRFC peptide] |  | Kd [3]: 295 nM
KRRQDSMTDFYHSKR-NH2 [p21µ-T145D peptide] | 4100 | 
KRRQTSMTDFFHSKR-NH2 [p21µ-Y151F peptide] | 167 | 
KRRQTSITDFYHSKR-NH2 [p21µ-M147I peptide] | 37.1 | 
